This assay has as its target H3(15-34) peptide (UniProt P68431). Kind of assay: ITC. On the technique in general: In ITC the heat of successive injections is recorded.

From PMC4609290 come the findings set out here.

By Kd is commonly meant the constant that tells how readily two partners part at equilibrium. Low values mean higher affinity, high ones lower affinity. “AF10PZP (as used for ITC) (from UniProt P55197-1 1-208) (domain or fragment)” registered an equilibrium dissociation constant (Kd) of 5 µM.
